Target: full-length extracellular region of human FGFR1 (human) (UniProt P11362)
Assay: BLI, target binding to sensor-immobilized Fab

Kd: 22.4 nM
B1: Library-S Fab against FGFR1 (Fab, V domains shown)
VH: EVQLVESGGGLVQPGGSLRLSCAASGFTFSSYGMHWVRQAPGKGLEWVAVISYDGSNKYYADSVKGRFTISRDNSKNTLYLQMNSLRAEDTAVYYCARSGRYGTYKGDFDYWGQGTLVTVSS
VL: DIQMTQSPSSLSASVGDRVTITCRASQGISNYLAWYQQKPGKAPKLLIYAASSLQSGVPSRFSGSRSGTDFTLTISSLQPEDFATYYCQQSYRSPLTFGQGTKVEIK
